This is an account of results in US20170081417A1 (Kyowa Kirin, published 2017).

No end group written: not given here. Some results are limits rather than exact numbers.

The target in experiment [1] is T1, human OX40 (CD134), full length, expressed on cells (activated human T cells); EL4-OX40 and CHO-OX40 … (human, UniProt P43489 29-277).
T1 sequence: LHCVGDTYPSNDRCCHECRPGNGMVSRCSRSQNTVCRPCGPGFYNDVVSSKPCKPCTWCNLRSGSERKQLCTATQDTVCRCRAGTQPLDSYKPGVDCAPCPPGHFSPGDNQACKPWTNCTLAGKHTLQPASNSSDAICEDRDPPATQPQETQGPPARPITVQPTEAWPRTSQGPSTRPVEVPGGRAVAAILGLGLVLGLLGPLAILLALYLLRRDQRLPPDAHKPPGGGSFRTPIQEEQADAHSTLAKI
Put plainly: cell-based or functional assay.

Experiment [2] deals with T2, human OX40 extracellular domain fused to the Fc portion of human IgG1 (hOX40:hFc) (human).
T2 construct: Made in Tn5 insect cells; also called OX40-hIgG1; human OX40:hIgG1 fusion protein
Description: ELISA, OX40L-FLAG binding to coated hOX40:hFc, anti-FLAG-HRP. The protocol:
(§1) The ability of 112F32, 112V8, 112Y131, 112Y55, and 112Z5 to block soluble hOX40L binding to coated hOX40:hFc fusion protein was tested using an ELISA protocol (FIG. 5A, Table 3). The plates were coated with hOX40:hFc and after blocking non-specific sites the anti-OX40 antibodies were allowed to bind. Without washing OX40L-FLAG was added to the wells. Bound ligand was detected with anti-FLAG-HRP secondary antibody. Percent inhibition was determined using the following formula (100−(OD sample/OD maximum OX40L binding))*100. 112V8, 112Y55, and 112Y131 prevented 85% of the binding of soluble OX40L to hOX40:hFc. 112F32 prevented approximately 70% of the binding of soluble hOX40L to hOX40:hFc and 112Z5 blocked 67% of the maximal binding.

For experiment [3], the target named is T1, human OX40 (CD134), full length, …. Put plainly: flow cytometry titration on activated human T cells, anti-human IgG-PE. The protocol:
(§2) Following twenty minute incubation on ice, the cells were washed once and fixed ten minutes with 1% paraformaldehyde. After a final wash the cells were resuspended in staining buffer and the samples were acquired using FACScan or FACS Calibur flow cytometers (Becton Dickinson Biosciences, Palo Alto, Calif.), and the data were analyzed using Cellquest (Becton Dickinson Biosciences) or Flow Jo (TreeStar, Inc., San Carlos, Calif.) software. The activated T cells were also stained with mouse anti-human OX40 antibody L106 (Becton Dickinson), which was directly conjugated to phycoerythrin or whose binding was detected with anti-mouse IgG-PE (Southern Biotechnology Associates.) OX40L Blocking Assays: To determine if the anti-human OX40 antibodies could block OX40L binding to soluble OX40 both ELISA and flow cytometric protocols were used. In the ELISA 96 well Nunc flat bottom plates were coated with recombinant soluble hOX40:hFc at 2 μg/ml in carbonate buffer (pH9.4) for one hour at 37° C. The plates were washed with PBS/0.1% Tween 20 and Superblock (Pierce) was added to the wells to block non-specific binding. The test antibodies were diluted to 1 μg/ml in PBS/Tween and added to the plates. After one hour incubation at 37° C., FLAG tagged recombinant soluble human OX40L (Alexis Biochemicals, San Diego, Calif.) was added to the appropriate wells without washing out the anti-OX40 antibodies. Following one hour incubation, the plates were washed and an anti-FLAG-peroxidase conjugated antibody (Sigma) was added to the wells for one hour at 37° C. The TMB substrate was added, after ten minutes the reaction was stopped with H₂SO₄, and the results were read at 450 nm using a microplate reader. In the flow cytometric assay, human CD4+ T cells were purified and activated with PHA+IL2 for two days. The cells were washed and resuspended in staining buffer and then incubated with increasing amounts of human anti-human OX40 antibodies for twenty minutes on ice, from 0.005-50 μg/ml. Soluble recombinant OX40L-FLAG was then added to the cells. The cells were washed and incubated with anti-FLAG conjugated to PE (Sigma). After another wash, the cells were fixed with 1% paraformaldehyde and analyzed on a FACScan or FACScalibur.
(In general: In flow cytometry, cells or beads pass a laser one at a time.)

Experiment [4] deals with T2, human OX40 extracellular domain fused …. Description: ELISA, blocking of OX40L-FLAG binding to coated hOX40:hFc. Here is the method:
as §1
A general note: In an ELISA, binding on a coated surface is turned into a signal by an enzyme label.

Experiment [5] has as its target T1, human OX40 (CD134), full length, …. Put plainly: flow cytometry, blocking of OX40L-FLAG binding to activated human T cells; footnote: not inhibitory at 50 µg/ml. An excerpt: The activated T cells were also stained with mouse anti-human OX40 antibody L106 (Becton Dickinson), which was directly conjugated to phycoerythrin or whose binding was detected with anti-mouse IgG-PE (Southern Biotechnology Associates.) OX40L Blocking Assays: To determine if the anti-human OX40 antibodies could block OX40L binding to soluble OX40 both ELISA and flow cytometric protocols were used. In the ELISA 96 well Nunc flat bottom plates were coated with recombinant soluble hOX40:hFc at 2 μg/ml in carbonate buffer (pH9.4) for one hour at 37° C. The plates were washed with PBS/0.1% Tween 20 and Superblock (Pierce) was added to the wells to block non-specific binding. The test antibodies were diluted to 1 μg/ml in PBS/Tween and added to the plates. […] The TMB substrate was added, after ten minutes the reaction was stopped with H₂SO₄, and the results were read at 450 nm using a microplate reader. […] After another wash, the cells were fixed with 1% paraformaldehyde and analyzed on a FACScan or FACScalibur.
Slightly different results were obtained when a flow cytometric based assay was used to monitor blockade of soluble OX40L binding to activated human T cells that express OX40 (FIG. 5B). […] Binding of OX40L was detected with anti-FLAG-PE antibody. Percent inhibition was determined using the same formula, i.e., (100−(sample/maximum binding))*100.

The next experiment deals with T3, human OX40 peptide 112B (human, also: conjugated to KLH via maleimide linker).
T3 peptide: RAGTQPLDSYKPGVDC
Put plainly: ELISA on coated KLH-conjugated peptide. Here is the method: (§3) Antibody titers, specificity, and production by hybridomas were determined by ELISA. In brief, 96 well flat bottom plates were coated with 50 μl of hOX40:hFc at 5 μg/ml in carbonate buffer (pH 9.4) overnight at 4° C. or at 37° C. for one hour. After washing twice with PBS/0.1% Tween 20, plates were blocked with PBS/1% BSA/0.1% Tween20 at 37° C. for one hour. The serum, supernatant, or purified antibody was diluted in blocking buffer, added to the wells, and the plates were incubated for one hour at 37° C. The plates were washed four times with PBS/0.1% Tween 20 and the peroxidase conjugated sheep anti-human kappa detection antibody (The Binding Site, Birmigham, UK) was added at a dilution of 1:2000. Following one hour incubation at 37° C., the plates were washed and the TMB (Sigma) substrate was added and incubated at room temperature for ten to thirty minutes. The reaction was stopped with H₂SO₄ (LabChem) and the optical density was measured at 450 nm by a microplate reader.
(§4) The peptides were generated by A & A Lab, LLC and conjugated to keyhole limpet hemocyanin (“KLH”) with a maleimide linker following the manufacturer's instructions (Pierce). The peptides were coated at 10 μg/ml in carbonate buffer to 96 well Maxisorp ELISA plates (Nunc) at 4° C. overnight. The plate was washed with PBS/0.1% Tween 20 and then blocked with Casein buffer (Pierce) for three hours at room temperature. Candidate antibodies were added at 10 μg/ml diluted in 10% Casein in PBS/0.1% Tween 20. The remainder of the ELISA was performed as described for the OX40 specific antibody detection ELISA.

Another experiment addresses T4, human OX40 peptide 112A (human, also: conjugated to KLH via maleimide linker).
T4 peptide: RPAGPGFYNDVVSSKPC
Description: ELISA on coated KLH-conjugated peptide. The protocol: as §3, §4

For a further experiment, the target named is T5, human OX40 peptide 112C (human, also: conjugated to KLH via maleimide linker).
T5 peptide: LAGKHTLQPASNSSDAIC
Description: ELISA on coated KLH-conjugated peptide. The protocol: as §3, §4

Experiment [6] addresses T1, human OX40 (CD134), full length, …. Description: flow cytometry, blocking of OX40L-FLAG binding to activated human T cells.
Description: as §2, with “The” for “Following twenty minute incubation on ice, the cells were washed once and fixed ten minutes with 1% paraformaldehyde. After a final wash the cells were resuspended in staining buffer and the samples were acquired using FACScan or FACS Calibur flow cytometers (Becton Dickinson Biosciences, Palo Alto, Calif.), and the data were analyzed using Cellquest (Becton Dickinson Biosciences) or Flow Jo (TreeStar, Inc., San Carlos, Calif.) software. The”
Slightly different results were obtained when a flow cytometric based assay was used to monitor blockade of soluble OX40L binding to activated human T cells that express OX40 (FIG. 5B). Activated human T cells were labeled with anti-OX40 antibodies followed by soluble flag tagged-human OX40L. Binding of OX40L was detected with anti-FLAG-PE antibody. Percent inhibition was determined using the same formula, i.e., (100−(sample/maximum binding))*100.

B1: recombinant 112F32G1 antibody (112F32 variable regions in human IgG1) (antibody, V domains shown)
VH: GVQLVESGGGLVQPGGSLRLSCAASGFTFSSYSMNWVRQAPGKGLEWVSYISSSSSTIYYADSVKGRFTISRDNAKNSLYLQMNSLRDEDTAVYYCARGVYHNGWSFFDYWGQGTLLTVSS
VL: DIQMTQSPSSLSASVGNRVTITCRASQDISSWLAWYQQKPEKAPKSLIYAASSLQSGVPSRFSGSGSGTDFTLTISSLQPEDFATYYCQQYNSYPLTFGQGTRLEIKR
For B1, the “ADCC % Lysis at 10 µg/ml” value in experiment [1] worked out at 37%.

B2: 112F32 human anti-human OX40 monoclonal antibody (hybridoma ATCC No. PTA-7217) (antibody, V domains shown)
VH: B1 VH
VL: B1 VL
As for B2, the “percent inhibition of OX40L binding” value in experiment [2] was around 70%. Further, the “BMAX Geo Mean” value in experiment [3] was 104 geometric mean fluorescence. Moreover, the affinity in experiment [3], expressed as Kd, was 13 nM. For the same molecule, the figures for the IC50 in [4] and in experiment [5] were 0.65 µg/mL and above 50 µg/mL, respectively. Also, the binding result with human OX40 peptide 112B, with human OX40 peptide 112A and with human OX40 peptide 112C was “no binding (tested: 10 µg/ml)” throughout.

B3: recombinant 112V8G1 antibody (112V8 variable regions in human IgG1) (antibody, V domains shown)
VH: QITLKESGPTLVKPKQTLTLTCTFSGFSLSTSGMGVGWIRQPPGKALEWLAVIYWDDHQLYSPSLKSRLTITKDTSKNQVVLTMTNMDPVDTATYYCAHRRGAFQHWGQGTLVTVSS
VL: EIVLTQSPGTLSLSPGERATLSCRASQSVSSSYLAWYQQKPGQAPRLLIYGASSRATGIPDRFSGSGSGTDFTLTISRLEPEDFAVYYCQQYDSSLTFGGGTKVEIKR
Consider B3, for which the “ADCC % Lysis at 10 µg/ml” value in experiment [1] was 55.6%.

B4: 112V8 human anti-human OX40 monoclonal antibody (hybridoma ATCC No. PTA-7219) (antibody, IgG4, V domains shown)
VH: B3 VH
VL: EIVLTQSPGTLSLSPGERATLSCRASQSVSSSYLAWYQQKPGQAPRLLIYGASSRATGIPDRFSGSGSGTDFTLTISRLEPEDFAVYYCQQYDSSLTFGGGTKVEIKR
B4: in experiment [2], the “percent inhibition of OX40L binding” value worked out at 85%. Also, the “BMAX Geo Mean” value in [3] was 181 geometric mean fluorescence. The Kd (as a rule, the equilibrium constant for the complex coming apart) in experiment [3] amounted to 36 nM. In addition, the figures for the IC50 in [6] and in experiment [4] were 0.62 µg/mL and 0.051 µg/mL, respectively. In addition, the binding result with human OX40 peptide 112B, with human OX40 peptide 112A and with human OX40 peptide 112C was “no binding (tested: 10 µg/ml)” each time.

B5: recombinant 112V8 IgG4PE antibody (112V8G4PE) (antibody, V domains shown)
VH: B3 VH
VL: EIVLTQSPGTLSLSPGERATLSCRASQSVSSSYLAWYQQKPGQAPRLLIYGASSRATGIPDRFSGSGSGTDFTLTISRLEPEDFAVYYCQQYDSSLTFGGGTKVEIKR
For B5, the “ADCC % Lysis at 10 µg/ml” value in [1] stood at 18%.

B6: 112Z5 human anti-human OX40 monoclonal antibody (hybridoma ATCC No. PTA-7216) (antibody, V domains shown)
VH: VVSTQSTGGGLVQPGRSLRLSCAASGFTLDDYGMHWVRQAPGKGLEWVSGISWNSDSIGYVDSVKGRFTISRDNAKNSLYLQMNSLRVEDTALYYCVKDISGWYSFDYWGQGTLVTVSS
VL: EIVLTQSPATLSLSPGERATLSCRASQSVSSYLAWYQQKPGQAPRLLIYDASNRATGIPARFSGSGSGTDFTLTISSLEPEDFAVYYCQQRSNWPITFGQGTRLEIK
Take B6: the “ADCC % Lysis at 10 µg/ml” value in experiment [1] worked out at 35%. Besides, in experiment [2], the “percent inhibition of OX40L binding” value worked out at 67%. The “BMAX Geo Mean” value in experiment [3] was 118 geometric mean fluorescence. The Kd in [3] stood at 11 nM. Also, the figures for the IC50 in experiment [6] and in experiment [4] were 14.7 µg/mL and 0.081 µg/mL, respectively.
